Target: JL14 HR2 peptide (JL14)
Assay: peptide ELISA

B1: hr2.020 (antibody, V domains shown)
VH: EVQLVQSGAEVKKPGESLKISCKGSGYRFASHWIGWVRQMPGKGLQWMGIIYPGDSDTKYSPSFQGQVTISADKSINTVYLHWTSLKASDTAVYYCARRPPHLDGGDSPIRFDHWGQGTLVTVSS
VL: QSVLTQPPSASGTPGQRVTISCSGSRSNIGSNDVYWYQQFPGTAPKLLIYRNNQRPSGVPDRFSGSKSGTSASLAISGLRSEDEADYYCATWDDRLTGVFGGGTKLTVV
Work on B1 yielded an EC50 of 0.0351 µg/mL.

B2: CV3-25 (antibody)
chain 1: QVQLVESGAEVKKPGESLKISCKGSGYTFTRYWIGWVRQMPGKGLEWMGIIYPGDSDTRYSPSFQGHVTISADKSISTAYLQWNSLKASDTAMYYCARLPQYCSNGVCQRWFDPWGQGTLVTVSS
chain 2: EIVLTQSPSSVSASVGDRVTITCRASQGISSWLAWYQQKPGKAPKLLIYAASSLQSGVPSRFSGSGSGTDFTLTISSLQPEDFATYYCQQGNSFPYTFGQGTNLEIK
Binder B2 has an EC50 of 0.0176 µg/mL.

Reference: patent publication US20250382354A1
